Measurements from the DeepSol protein solubility set.

Test: soluble on expression in E. coli; label from the status in PepcDB or PDB records

Sequence	soluble on expression in E. coli
MHNQAPIQRRKSTRIYVGNVPIGDGAPIAVQSMTNTRTTDVEATVNQIKALERVGADIVRVSVPTMDAAEAFKLIKQRVNVPLVADIHFDYRIALKVAEYGVDCLRINPGNIGNEERIRMVVDCARDKNIPIRIGVNAGSLEKDLQEKYGEPTPQALLESAMRHVDHLDRLNFDQFKVSVKASDVFLAVESYRLLAKQIDQPLHLGITEAGGARSGAVKSAIGLGLLLSEGIGDTLRVSLAADPVEEIKVGFDILKSLRIRSRGINFIACPTCSRQEFDVIGTVNALEQRLEDIITPMDVSIIGCVVNGPGEALVSTLGVTGGNKKSGLYEDGVRKDRLDNNDMIDQLEARIRAKASQLDEARRIDVQQVGKIITLEHHHHHH	not soluble
MHPLLRRLDLNLLLVFDALYRHRNVGTAASELAISASAFSHALGRLRQGLDDELFLRQGNRMQPTQRAEHLAAAVAAALRALGEGLEEWRPFVPGQSQRTFVFAATDYTAFALLPPLMNRLQHSAPGVRLRLVNAERKLSVEALASGRIDFALGYDEEHERLPEGIQAHDWFADRYVVVARRDHPRLAGAPTLEGYLAERHAVVTPWNEDSGVIDRLLARSGLRREVAVQLPTVLAALFLAGSTDFLLTAPRHAARALAEAAGLALYPAPFDIPPYVLRLYSHVQHVGRDAHAWMIGQLKGLDISRTG	soluble
MHPTGPQLGPDVLFRESKMKVTLTFNEQRRAAYRQQGLWGDASLADYWQQTARAMPDKIAVVDNHGASYTYSALDHAASCLANWMLAKGIESGDRIAFQLPGWCEFTVIYLACLKIGAVSVPLLPSWREAELVWVLNKCQAKMFFAPTLFKQTRPVDLILPLQNQLPQLQQIVGVDKLAPATSSLSLSQIIADNIPLTTAITTHGDELAAVLFTSGTEGLPKGVMLTHNNILASERAYCARLNLTWLDVFMMPAPLGHATGFLHGVTAPFLIGARSVLLDIFTPDACLALLEQQRCTCMLGATPFVYDLLNLLEKQPADLSALRFFLCGGTTIPKKVARECQQRSIKLLSVYGSTESSPHAVVNLDNSLSRFMHTDGYAAAGVEIKVVDDARKTLPPGCEGEEASRGPNVFMGYFDEPELTARALDEEGWYYSGDLCRMDEAGYIKITGRKKDIIVRGGENISSREVEDILLQHPKIHDACVVAMPDERLGERSCAYVVLKAPHHSLSLEEMAAFFSRKRVAKYKYPEHIVVIEKLPRTASDKIQKFLLRKDIIRRLTQDVCEEIE	not soluble
MHPVILFDGDCLFCHASAHWIAARDRQAVFRFAAQQSIVGQALLAKQEMSAEDSVVLIENGCCYVKSEAVLRIGRRLAWPWNWLAAAGFLIPRLLRDHMYDAIANRRHRLVPKRDHCQLPSPELRARFLDELPQ	not soluble
MHRGITVQTSDLDDGVTGVVGKVYIEASPKHVWAAITDYNNHKSFVPKLIDSGLISDNGREQVMFERGKTGIFLFRKTVYIKLSLQGEYPKRLDFHQIEGDFKVYEGDWLIERASDGKGSILTFRAKIKPDFFAPAMFVRKVQQNDLPMVLAAMKKRAESAEGSLEHHHHHH	not soluble
MHRRGVGAGAIAKKKLAEAKYKERGTVLAEDQLAQMSKQLDMFKTNLEEFASKHKQEIRKNPEFRVQFQDMCATIGVDPLASGKGFWSEMLGVGDFYYELGVQIIEVCLALKHRNGGLITLEELHQQVLKGRGKFAQDVSQDDLIRAIKKLKALGTGFGIIPVGGTYLIQSVPAELNMDHTVVLQLAEKNGYVTVSEIKASLKWETERARQVLEHLLKEGLAWLDLQAPGEAHYWLPALFTDLYSQEITAEEAREALP	soluble
MHSGDFMSVSTPTRDDFAALLEESFASNDLAEGYVAKGIVTAIEKDVAIVDVGLKVEGRVPLKEFGAKSKDGTLKVGDEVEVYVERIENALGEAVLSREKARREESWVKLEAKFEAGERVEGVIFNQVKGGFTVDLDGAVAFLPRSQVDIRPIRDVTPLMHNPQPFEILKMDKRRGNIVVSRRTVLEESRAEQRSEIVQNLEEGQVVDGVVKNITDYGAFVDLGGIDGLLHVTDMAWRRVNHPSEILNIGQQVKVQIIRINQETHRISLGMKQLESDPWDGISAKYPVGKKISGTVTNITDYGAFVELEPGIEGLIHISEMSWTKKNVHPGKILSTSQEVDVVVLEVDPSKRRISLGLKQTLENPWQAFAFSHPAGTEVEGEVKNKTEFGLFIGLEGDVDGMVHLSDLDWNRPGEQVIEEFNKGDVVKAVVLDVDVEKERISLGIKQLGKDAVGEAATSGDLRKNAVVSCEVIAVNDGGVEVKLVNHEDITSFIRRNDLARDRDDQRPERFAVGQVFDARVVNFSKKDRKVMLSIKALEIAEEKEAVAQFGSSDSGASLGDILGAALKNRGELEHHHHHH	soluble
MHTQVHTARLVHTADLDSETRQDIRQMVTGAFAGDFTETDWEHTLGGMHALIWHHGAIIAHAAVIQRRLIYRGNALRCGYVEGVAVRADWRGQRLVSALLDAVEQVMRGAYQLGALSSSARARRLYASRGWLPWHGPTSVLAPTGPVRTPDDDGTVFVLPIDISLDTSAELMCDWRAGDVW	soluble
MIAKTDSDIRHVTPSGGNVFADLGFHKQDAEKFYADSLNEIENTLAIKQQLMEEITLWITQNQMKQAEVATVLHISRPRVSDVVNKKCSKFTIDALVNMLSRIGKPVRVMVGP	not soluble
MICFRTAFILILGVVIGTTAKRHNVRRHVNGKWTDKHCEEPPSLKEDLATWMQISMSGQFDDTALEEWSTNGKEPEICEKSPKADGVTTIMERALCPWDSRVNYQESREPKLIAESVCLCRKSRGSTGAFCMPIVRKVPILRRVSCDRSTGLWNYVRSTELITVGCHSVLPRTQRAARLAHLSSSRIIV	not soluble
MICPRCADAHIELMATSPVKGVWTVYQCQHCLYTWRDTEPLRRTSREHYPQAFRMTQKDIDDAPMVPSIPPLLAEDKR	not soluble
MIDADAIKMRILSMMEQLGMTPSAFADRAGISRSALTHITSGRNKVTLDMINKIMQGFDEWSAEWIIFGKGPQQSNKTAFENDLFSYSSVPEQELHTRTKDNCGIQSPSGRLEPEIKIVQMPAKQIERITVFYTDGSYQEFRSNKE	not soluble
MIDERDKIILEILEKDARTPFTEIAKKLGISETAVRKRVKALEEKGIIEGYTIKINPKKLGYSLVTITGVDTKPEKLFEVAEKLKEYDFVKELYLSSGDHMIMAVIWAKDGEDLAEIISNKIGKIEGVTKVCPAIILEKLK	soluble
MIDPVGLPDTFVRIVLVGSGNLATQTALALSEAASPPVQVWSRNAEHAERLASMLPGATATDRTEELLCDAELYLLAVSDHALESVAATLPPTSGIWAHTAGSMPMDTLRPYHAQIGVFYPLQTFSRERRVDYSSIPIYIEGNDESVVRLLESVARLISRNVLRCTSEQRLYLHLAAVFACNFTNHLYALSEQMLAAHGLPPRSLAPLIAETAAKVQEMSATEAQTGPAKRDDTNTLQKHLGLLNPYPDWQEIYRILSDSIRKMYGPKEQ	not soluble
MIDVGGWYNKAELKAKGDEIVKEAKLATRREAESYRAALDAQAQQEARSKGVENTEHIRGMNPITPQEEAEFAAYLDESFSWIPSAFEGYGDPNPDDFDGIIKDLAKVEGTFGGSQSSTKNGDLAWTEKAKSEIEEWKGVFAENLYNNLLLPLPTIQDNHGKIAHVLTEAMKGTQNIYNGQKRDISQLADDTIKQLKKCGTRDGDNTKLGLTVAACLMGVAAAALALPSGGTSVYVTGIVMASISSSTIITNATVKPGDGDIGGKTVNDVIKSMSDGMSRISTEVSEQEQKVVKVLSKNYEMLTGLRQLGNSSKKPTPISPMRPTIADSKNPSSGLKPEGPQ	not soluble
MIEISTSATSTTVTIEGDLDLSTRPQFHAATAKLGAVRRPLLVIDASRITFLDSTGAAFLISLADATRKRGGAAVLRGADERVLFVLETCGALDFFRLDPEPGLQEGDGGTRLRG	not soluble
MIELEGVPELVDPVMVAAFEGWNDAGDAASTAVAHLDREWKGEVFAALDAEDYYDFQVNRPTVFMEDGVRKITWPTTRLSVVRVGGDKPRDLVLVRGIEPSMRWRSFCNELLGFAHELGVELVVVLGALLGDTPHTRPVPISGTTSDADLARRMDLEETKYEGPTGIVGILQEACTHAGVPAVSLWAAVPHYVSQPPNPKATLALLNRLEDLIGVRVPLGELPEDARAWQVGVDQLAAEDTEVAEYVQSLEEARDTA	soluble
